Blank lines part the entries; values can stand above or below the binder they belong to.
Key:
[1] = target: T1, recombinant human IL-36R (ECD) (human, UniProt Q9HB29 20-332); assay: SPR (ProteOn), single IL-36R surface coat concentration
T1 construct: range 20-332; also called IL-1RL2; IL-1Rrp2
T1 sequence (looked up): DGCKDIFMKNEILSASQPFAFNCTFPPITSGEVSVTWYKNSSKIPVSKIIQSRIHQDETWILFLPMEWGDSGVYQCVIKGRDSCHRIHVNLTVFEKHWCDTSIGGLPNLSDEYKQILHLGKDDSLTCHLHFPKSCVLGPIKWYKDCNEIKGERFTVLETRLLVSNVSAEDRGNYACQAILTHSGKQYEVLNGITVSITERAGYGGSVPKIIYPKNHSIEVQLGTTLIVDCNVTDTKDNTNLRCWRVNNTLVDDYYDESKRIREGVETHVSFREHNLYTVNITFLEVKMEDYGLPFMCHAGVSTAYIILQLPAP
Experimental: A) Kinetics and binding affinities of anti-IL-36R antibodies binding to recombinant human IL-36R were measured using the Proteon (Bio-Rad, Hercules, Calif.) using material generated from hybridoma following single column purification. […] Binding of the chimeric anti-IL36R IgGs is equivalent to the respective mouse leads.

human IL-36R on cells [2] = target: T2, human IL-36R on cells (human, UniProt Q9HB29 20-575); assay: cell-based or functional assay
T2 sequence (looked up): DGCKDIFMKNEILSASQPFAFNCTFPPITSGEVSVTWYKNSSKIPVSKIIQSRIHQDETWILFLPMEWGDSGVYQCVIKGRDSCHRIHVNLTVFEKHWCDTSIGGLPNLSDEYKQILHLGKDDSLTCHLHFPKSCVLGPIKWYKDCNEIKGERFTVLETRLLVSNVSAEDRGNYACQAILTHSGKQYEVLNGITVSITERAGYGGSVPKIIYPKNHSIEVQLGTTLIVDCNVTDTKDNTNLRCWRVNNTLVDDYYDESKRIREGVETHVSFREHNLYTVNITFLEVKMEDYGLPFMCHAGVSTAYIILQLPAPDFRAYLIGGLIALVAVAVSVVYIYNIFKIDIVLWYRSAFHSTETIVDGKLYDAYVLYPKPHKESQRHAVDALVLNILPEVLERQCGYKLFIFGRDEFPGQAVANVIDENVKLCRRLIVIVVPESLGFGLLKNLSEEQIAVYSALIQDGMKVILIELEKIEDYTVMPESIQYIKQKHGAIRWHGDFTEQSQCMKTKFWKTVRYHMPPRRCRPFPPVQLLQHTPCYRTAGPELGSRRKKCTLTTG

human IL-36R on cells [3] = target: T2, human IL-36R on cells; assay: flow cytometry, HEK293 cells transfected with full-length human IL-36R
Experimental: HEK293 cells transfected with full-length human IL-36R or NCI/ADR-RES cells were passaged for 24 hours prior to staining. Cells were removed from flasks by rinsing with 10 ml of 5 mM EDTA in PBS, and then incubated at 37° C. for 10 min with an additional 10 ml of 5 mM EDTA and 2.5 ml of Accumax to declump/disperse cells. Antibodies were then diluted to specified concentrations in PBS+2% BSA, and cells incubated for 20 min at room temperature. Excess antibody was then washed by adding 200 μl of PBS and then centrifuged. Secondary reagent was then added at 50 μl per well and cells are incubated for 15 min at room temperature and then washed as above. Cells were resuspended in 200 μl PBS and analyzed by flow cytometry.

[4] = target: T1, recombinant human IL-36R (ECD); assay: SPR (ProteOn), recombinant human IL-36R at 7 surface densities, global fit
Experimental: A) Kinetics and binding affinities of anti-IL-36R antibodies binding to recombinant human IL-36R were measured using the Proteon (Bio-Rad, Hercules, Calif.) using material generated from hybridoma following single column purification. […] The binding affinities of the mouse antibodies to human IL-36R run at 7 different surface densities (globally fit) is shown in Table 1. Binding of the chimeric anti-IL36R IgGs is equivalent to the respective mouse leads.

mouse IL-36R = target: T3, mouse IL-36R (mouse, UniProt Q9ERS7 22-338); assay: BLI (Fortebio Octet), antibody injected over antigen surface
T3 sequence (looked up): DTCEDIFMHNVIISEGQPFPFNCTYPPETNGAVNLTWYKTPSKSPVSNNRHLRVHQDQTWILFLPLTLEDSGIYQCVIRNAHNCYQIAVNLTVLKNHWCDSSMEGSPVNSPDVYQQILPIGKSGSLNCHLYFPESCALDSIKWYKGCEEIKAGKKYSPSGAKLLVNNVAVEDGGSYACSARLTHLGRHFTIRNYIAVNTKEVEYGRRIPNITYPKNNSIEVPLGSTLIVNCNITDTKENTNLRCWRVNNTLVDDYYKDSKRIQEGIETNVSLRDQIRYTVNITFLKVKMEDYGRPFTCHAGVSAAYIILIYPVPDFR
Experimental: (§1) B) Molecular selectivity over mouse IL-36R and human IL-1R1 The mouse and chimeric anti-IL-36R antibodies were also injected over either a mouse IL-36R or a human IL-1R1 surface at a concentration of 100 nM. The binding signal to mouse IL-36R and to human IL-1R1 for these antibodies measured using the Fortebio Octet (Fortebio, Menlo Park, Calif.) is zero, which indicates these antibodies selectively bind to human IL-36R.

human IL-1R1 = target: T4, human IL-1R1 (human, UniProt P14778 18-336, limits assumed); assay: as above
T4 construct: also called IL-1RI
T4 sequence (looked up): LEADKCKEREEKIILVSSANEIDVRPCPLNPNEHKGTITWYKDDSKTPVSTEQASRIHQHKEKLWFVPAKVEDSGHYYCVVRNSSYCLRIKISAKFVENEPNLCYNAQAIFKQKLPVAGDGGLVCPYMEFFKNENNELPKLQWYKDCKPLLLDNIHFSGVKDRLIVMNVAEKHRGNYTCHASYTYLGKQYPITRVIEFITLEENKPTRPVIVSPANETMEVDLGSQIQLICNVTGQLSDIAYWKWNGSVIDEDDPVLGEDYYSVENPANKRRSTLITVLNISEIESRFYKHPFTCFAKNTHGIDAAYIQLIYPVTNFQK
Experimental: as §1

[5] = target: cynomolgus IL-36R on BaF/3 cells (cynomolgus, UniProt A0A2K5WSK9 20-558); assay: cell-based or functional assay
Chain of cynomolgus IL-36R on BaF/3 cells (A0A2K5WSK9 entry or part of it): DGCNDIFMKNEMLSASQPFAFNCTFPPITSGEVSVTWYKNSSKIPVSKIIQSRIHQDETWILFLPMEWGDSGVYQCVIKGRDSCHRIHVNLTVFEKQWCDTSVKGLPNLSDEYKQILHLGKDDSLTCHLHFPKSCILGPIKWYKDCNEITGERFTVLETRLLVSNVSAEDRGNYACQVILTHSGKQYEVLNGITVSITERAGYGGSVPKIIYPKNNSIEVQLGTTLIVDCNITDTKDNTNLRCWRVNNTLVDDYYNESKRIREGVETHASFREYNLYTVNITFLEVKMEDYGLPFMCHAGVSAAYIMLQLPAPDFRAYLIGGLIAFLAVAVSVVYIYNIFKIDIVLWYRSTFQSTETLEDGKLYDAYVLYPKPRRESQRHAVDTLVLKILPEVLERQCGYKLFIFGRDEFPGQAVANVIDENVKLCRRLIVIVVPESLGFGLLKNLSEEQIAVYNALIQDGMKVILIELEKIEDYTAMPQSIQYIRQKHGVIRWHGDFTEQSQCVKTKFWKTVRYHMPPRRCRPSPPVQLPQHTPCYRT

human IL-36R on cells [6] = target: T2, human IL-36R on cells; assay: cell-based or functional assay; remark: listed apart in the source

Kd [1]: < 0.1 nM
IC90, IL-8 release, human primary keratinocytes (NHK), trun-IL-36a (human IL-36R on cells [2]): 19.3 nM
IC90, IL-8 release, human primary keratinocytes (NHK), trun-IL-36b (human IL-36R on cells [2]): 34 nM
IC90, IL-8 release, human primary keratinocytes (NHK), trun-IL-36g (human IL-36R on cells [2]): 3.6 nM
IC90, pNFκB, human primary keratinocytes (NHK), trun-IL-36a (human IL-36R on cells [2]): 11.6 nM
IC90, pNFκB, human primary keratinocytes (NHK), trun-IL-36b (human IL-36R on cells [2]): 14.2 nM
IC90, pNFκB, human primary keratinocytes (NHK), trun-IL-36g (human IL-36R on cells [2]): 10.6 nM
EC50 (human IL-36R on cells [3]): 0.529 nM
Kd [4]: 0.063 nM
binding result (mouse IL-36R): no binding (tested: 100 nM)
binding result (human IL-1R1): no binding (tested: 100 nM)
IC90, pNFκB, BaF/3 cynomolgus IL-36R cells, trun-IL-36a [5]: 1 nM
IC90, pNFκB, BaF/3 cynomolgus IL-36R cells, trun-IL-36b [5]: 2.1 nM
IC90, pNFκB, BaF/3 cynomolgus IL-36R cells, trun-IL-36g [5]: 1.5 nM
IC90, GM-CSF release, NCI/ADR-RES cells, trun-IL-36a (human IL-36R on cells [6]): 7.1 nM
IC90, GM-CSF release, NCI/ADR-RES cells, trun-IL-36b (human IL-36R on cells [6]): 2 nM
IC90, GM-CSF release, NCI/ADR-RES cells, trun-IL-36g (human IL-36R on cells [6]): 1.7 nM
IC90, IL-6 release, NCI/ADR-RES cells, trun-IL-36a (human IL-36R on cells [6]): 14 nM
IC90, IL-6 release, NCI/ADR-RES cells, trun-IL-36b (human IL-36R on cells [6]): 5.8 nM
IC90, IL-6 release, NCI/ADR-RES cells, trun-IL-36g (human IL-36R on cells [6]): 1.3 nM
IC90, IL-8 release, NCI/ADR-RES cells, trun-IL-36a (human IL-36R on cells [6]): 4.7 nM
IC90, IL-8 release, NCI/ADR-RES cells, trun-IL-36b (human IL-36R on cells [6]): 1.1 nM
IC90, IL-8 release, NCI/ADR-RES cells, trun-IL-36g (human IL-36R on cells [6]): 1.4 nM
IC90, pNFκB, NCI/ADR-RES cells, trun-IL-36a (human IL-36R on cells [6]): 5.8 nM
IC90, pNFκB, NCI/ADR-RES cells, trun-IL-36b (human IL-36R on cells [6]): 6.8 nM
IC90, pNFκB, NCI/ADR-RES cells, trun-IL-36g (human IL-36R on cells [6]): 4.6 nM
B1: antibody 78C8 (antibody, V domains shown)
VH: QVQLKESGPVLVAPSQSLSITCTVSGFSLTKFGVHWIRQTPGKGLEWLGVIWAGGPTNYNSALMSRLTISKDISQSQVFLRIDSLQTDDTAMYYCAKQIYYSTLVDYWGQGTSVTVSS
VL: DVLLTQTPLSLPVSLGDQASISCRSSQNIVHSNGNTYLQWYLQKPGQSPKLLIYKVSNRFSGVPDRFSGSGSGTDFTLKISRVEAEDLGVYYCFQGSHVPFTFGAGTKLELK
notes: Mouse monoclonal from hybridoma; also called 78C8D1; Mouse 78C8

Kd [1]: < 0.1 nM
IC90, IL-8 release, human primary keratinocytes (NHK), trun-IL-36a (human IL-36R on cells [2]): 0.7 nM
IC90, IL-8 release, human primary keratinocytes (NHK), trun-IL-36b (human IL-36R on cells [2]): 1.2 nM
IC90, IL-8 release, human primary keratinocytes (NHK), trun-IL-36g (human IL-36R on cells [2]): 0.5 nM
IC90, pNFκB, human primary keratinocytes (NHK), trun-IL-36a (human IL-36R on cells [2]): 1.3 nM
IC90, pNFκB, human primary keratinocytes (NHK), trun-IL-36b (human IL-36R on cells [2]): 1.1 nM
IC90, pNFκB, human primary keratinocytes (NHK), trun-IL-36g (human IL-36R on cells [2]): 0.5 nM
EC50 (human IL-36R on cells [3]): 0.302 nM
Kd [4]: 0.024 nM
binding result (mouse IL-36R): no binding (tested: 100 nM)
binding result (human IL-1R1): no binding (tested: 100 nM)
IC90, pNFκB, BaF/3 cynomolgus IL-36R cells, trun-IL-36a [5]: 2.4 nM
IC90, pNFκB, BaF/3 cynomolgus IL-36R cells, trun-IL-36b [5]: 3.5 nM
IC90, pNFκB, BaF/3 cynomolgus IL-36R cells, trun-IL-36g [5]: 5.1 nM
IC90, GM-CSF release, NCI/ADR-RES cells, trun-IL-36a (human IL-36R on cells [6]): 0.8 nM
IC90, GM-CSF release, NCI/ADR-RES cells, trun-IL-36b (human IL-36R on cells [6]): 0.3 nM
IC90, GM-CSF release, NCI/ADR-RES cells, trun-IL-36g (human IL-36R on cells [6]): 0.4 nM
IC90, IL-6 release, NCI/ADR-RES cells, trun-IL-36a (human IL-36R on cells [6]): 0.8 nM
IC90, IL-6 release, NCI/ADR-RES cells, trun-IL-36b (human IL-36R on cells [6]): 0.3 nM
IC90, IL-6 release, NCI/ADR-RES cells, trun-IL-36g (human IL-36R on cells [6]): 0.2 nM
IC90, IL-8 release, NCI/ADR-RES cells, trun-IL-36a (human IL-36R on cells [6]): 0.7 nM
IC90, IL-8 release, NCI/ADR-RES cells, trun-IL-36b (human IL-36R on cells [6]): 0.2 nM
IC90, IL-8 release, NCI/ADR-RES cells, trun-IL-36g (human IL-36R on cells [6]): 0.3 nM
IC90, pNFκB, NCI/ADR-RES cells, trun-IL-36a (human IL-36R on cells [6]): 1.7 nM
IC90, pNFκB, NCI/ADR-RES cells, trun-IL-36b (human IL-36R on cells [6]): 1.4 nM
IC90, pNFκB, NCI/ADR-RES cells, trun-IL-36g (human IL-36R on cells [6]): 1.2 nM
B2: antibody 81B4 (antibody, V domains shown)
VH: QVQLQQPGADFVRPGASMRLSCKASGYSFTSSWIHWVKQRPGQGLEWIGEINPGNVRTNYNENFRNKATLTVDKSSTTAYMQLRSLTSADSAVYYCTVVFYGEPYFPYWGQGTLVTVSA
VL: QIVLTQSPAIMSASLGERVTMTCTASSSVSSSYFHWYQQKPGSSPKLWIYRTSNLASGVPGRFSGSGSGTSYSLTISSMEAEDAATYYCHQFHRSPLTFGAGTKLELK
notes: Mouse monoclonal from hybridoma; also called 81B4E11; Mouse 81B4

Reference: US20200231684A1 (published 2020)
